Where two headings read alike, the source gives them in different places.
Key:
[1] = target: CAT-2200 lambda light chain, wild type (L1), N-terminal FLAG tag; assay: LCCA, SPR of light chain tags
[2] = target: Pertuzumab kappa light chain S131K_S176K; assay: LCCA
[3] = target: Pertuzumab kappa light chain S131K_S176K; assay: LCCA; remark: listed apart in the source
[4] = target: Pertuzumab kappa light chain S131K_L135W_S176K; assay: LCCA
[5] = target: Pertuzumab kappa light chain S131K_S176K; assay: LCCA; remark: listed apart in the source
[6] = target: Pertuzumab kappa light chain S131K_S176K; assay: LCCA; remark: listed apart in the source
[7] = target: Pertuzumab kappa light chain S121K_S131K_S176K; assay: LCCA
[8] = target: Pertuzumab kappa light chain S121K_S131K_S176K; assay: LCCA; remark: listed apart in the source
[9] = target: CAT-2200 lambda light chain Y178K; assay: LCCA
[10] = target: Pertuzumab kappa light chain V133G_S176D; assay: LCCA
[11] = target: Pertuzumab kappa light chain V133G_L135W_S176D_T180E; assay: LCCA
[12] = target: Pertuzumab kappa light chain V133G_S176D_T180E; assay: LCCA
[13] = target: Pertuzumab kappa light chain V133G_L135W_S176D; assay: LCCA
[14] = target: CAT-2200 lambda light chain S122D_Y178K; assay: LCCA
[15] = target: Pertuzumab kappa light chain S121K_V133G_S176D; assay: LCCA
[16] = target: Pertuzumab kappa light chain Q124E_V133G_S176D; assay: LCCA
[17] = target: Pertuzumab kappa light chain Q124E_V133G_S176D_T180E; assay: LCCA
[18] = target: Pertuzumab kappa light chain Q124E_V133G_S176D; assay: LCCA; remark: listed apart in the source
[19] = target: Pertuzumab kappa light chain Q124E_V133G_S176D_T178E_T180E; assay: LCCA
[20] = target: Pertuzumab kappa light chain Q124E_V133G_S176D_T180E; assay: LCCA; remark: listed apart in the source
[21] = target: Pertuzumab kappa light chain V133G_L135A_S176D_T180E; assay: LCCA, SPR tag read-out
[22] = target: Pertuzumab kappa light chain S121K_V133G_S176D_T180E; assay: LCCA, SPR tag read-out
[23] = target: CAT-2200 lambda light chain S122D_Y178K; assay: LCCA, SPR tag read-out
[24] = target: Pertuzumab kappa light chain S121K_V133G_S176D_T180E; assay: LCCA, SPR tag read-out; remark: listed apart in the source
[25] = target: Pertuzumab kappa light chain S121K_V133G_S176D_T180E; assay: LCCA, SPR tag read-out; remark: listed apart in the source
[26] = target: Pertuzumab kappa light chain Q124K_V133A_T178R; assay: LCCA
[27] = target: CAT-2200 lambda light chain K129T_V133W_S180E; assay: LCCA
[28] = target: Pertuzumab kappa light chain Q124R_Q160K_T178R; assay: LCCA
[29] = target: Pertuzumab kappa light chain Q124R_L135W_Q160K_T178R; assay: LCCA
[30] = target: Pertuzumab kappa light chain Q124R_L135W_T178R; assay: LCCA
[31] = target: Pertuzumab kappa light chain Q124R_Q160K_T178R; assay: LCCA; remark: listed apart in the source
[32] = target: Pertuzumab kappa light chain S121K_Q124R_Q160K_T178R; assay: LCCA
[33] = target: Pertuzumab kappa light chain S121K_Q124R_T178R; assay: LCCA
[34] = target: CAT-2200 lambda light chain S122D_K129T_S180E; assay: LCCA
[35] = target: Pertuzumab kappa light chain S121K_Q124R_T178R; assay: LCCA, SPR tag read-out
[36] = target: CAT-2200 lambda light chain S122D_K129T_S180E; assay: LCCA; remark: listed apart in the source
[37] = target: Pertuzumab kappa light chain S121K_Q124R_T178R; assay: LCCA, SPR tag read-out; remark: listed apart in the source
[38] = target: CAT-2200 lambda light chain S122D_K129T_S176E_Y178E; assay: LCCA, SPR tag read-out
[39] = target: CAT-2200 lambda light chain S122D_K129T_S176D_Y178T; assay: LCCA, SPR tag read-out
[40] = target: CAT-2200 lambda light chain S122D_K129T_V133D; assay: LCCA, SPR tag read-out
[41] = target: Pertuzumab kappa light chain S121K_Q124R_T178R; assay: LCCA, SPR tag read-out; remark: listed apart in the source
[42] = target: Pertuzumab kappa light chain Q124K_S176A_T178R; assay: LCCA
[43] = target: Pertuzumab kappa light chain Q124E_V133D_S176E_T180E; assay: LCCA
[44] = target: Pertuzumab kappa light chain Q124E_V133D_S176E_T178E_T180E; assay: LCCA
[45] = target: CAT-2200 lambda light chain E124Q_T131R; assay: LCCA, SPR
[46] = target: Pertuzumab kappa light chain Q124E_V133D_L135W_T180D; assay: LCCA, SPR tag read-out
[47] = target: Pertuzumab kappa light chain Q124E_V133D_L135W; assay: LCCA, SPR tag read-out
[48] = target: Pertuzumab kappa light chain Q124E_V133D_T180D; assay: LCCA, SPR tag read-out
[49] = target: Pertuzumab kappa light chain Q124E_V133D; assay: LCCA, SPR
[50] = target: CAT-2200 lambda light chain E124Q_T131R; assay: LCCA, SPR tag read-out
[51] = target: CAT-2200 lambda light chain E124Q_T131R; assay: LCCA, SPR tag read-out; remark: listed apart in the source
[52] = target: CAT-2200 lambda light chain S122D_E124Q_T131R; assay: LCCA, SPR tag read-out
[53] = target: Pertuzumab kappa light chain S121K_Q124E_V133D_T180D; assay: LCCA, SPR tag read-out
[54] = target: Pertuzumab kappa light chain S121K_Q124E_V133D; assay: LCCA, SPR tag read-out
[55] = target: Pertuzumab kappa light chain Q124E_V133D_T178E; assay: LCCA
[56] = target: Pertuzumab kappa light chain Q124E_V133D_S176D_T178E; assay: LCCA
[57] = target: Pertuzumab kappa light chain Q124E_V133D_T178E; assay: LCCA; remark: listed apart in the source
[58] = target: Pertuzumab kappa light chain Q124E_V133D_S176D_T178E; assay: LCCA; remark: listed apart in the source
[59] = target: Pertuzumab kappa light chain Q124E_V133D_S176D_T178E; assay: LCCA, SPR tag read-out
[60] = target: Pertuzumab kappa light chain Q124E_V133D_S176D_T178D; assay: LCCA, SPR tag read-out
[61] = target: CAT-2200 lambda light chain Y178K; assay: LCCA; remark: listed apart in the source
[62] = target: Pertuzumab kappa light chain Q124E_S176E_T180E; assay: LCCA
[63] = target: Pertuzumab kappa light chain Q124E_S176E_T178D_T180E; assay: LCCA
[64] = target: Pertuzumab kappa light chain Q124E_S176E_T178E_T180E; assay: LCCA
[65] = target: Pertuzumab kappa light chain Q124E_Q160E_S176D_T178D; assay: LCCA
[66] = target: Pertuzumab kappa light chain Q124E_Q160E_S176D_T178D_T180E; assay: LCCA
[67] = target: Pertuzumab kappa light chain V133I_L135A_S176D_T178E; assay: LCCA, SPR tag read-out

CAT-2200 Fab heavy chain, wild type (H1), ABD2-His6 tagged
H1L1:H1L2 normalized median scalar value ln(r1/f1) [1]: 0.48

Pertuzumab Fab heavy chain K145T_S186E
H2L2:H2L1 median scalar value [2]: 2.25 ln
H2L2:H2L1 median scalar value [3]: 0.9 ln
H2L2:H2L1 median scalar value [4]: -0.33 ln
H2L2:H2L1 median scalar value [5]: 1.58 ln
H2L2:H2L1 median scalar value [6]: 0.53 ln

Pertuzumab Fab heavy chain K145T_S186E_K228D
H2L2:H2L1 median scalar value [7]: 1.21 ln
H2L2:H2L1 median scalar value [8]: 0.33 ln

Pertuzumab Fab heavy chain L124R
H2L2:H2L1 normalized median ratio [9]: 9%
H2L2:H2L1 median scalar value [10]: 2.2 ln
H2L2:H2L1 median scalar value [11]: 0.29 ln
H2L2:H2L1 median scalar value [12]: 2.34 ln
H2L2:H2L1 normalized median ratio [12]: 91%
H2L2:H2L1 median scalar value [13]: 0.55 ln

Pertuzumab Fab heavy chain L124R_K228D
H2L2:H2L1 normalized median ratio [14]: 33%
H2L2:H2L1 median scalar value [15]: 1.97 ln
H2L2:H2L1 normalized median ratio [15]: 67%

Pertuzumab Fab heavy chain L124R_L143K
H2L2:H2L1 median scalar value [16]: 0.55 ln
H2L2:H2L1 median scalar value [17]: 0.25 ln
H2L2:H2L1 median scalar value [18]: 0.45 ln
H2L2:H2L1 normalized median ratio [9]: 49%
H2L2:H2L1 median scalar value [19]: 0.07 ln
H2L2:H2L1 normalized median ratio [19]: 51%
H2L2:H2L1 median scalar value [20]: 0.35 ln

Pertuzumab Fab heavy chain L124R_S186K_V190F
H2L2:H2L1 median scalar value [21]: -0.44 ln(ratio)

Pertuzumab Fab heavy chain L124R_S186R_K228D
H2L2:H2L1 median scalar value [22]: -0.52 ln(ratio)
H2L2:H2L1 normalized median ratio [23]: 34%
H2L2:H2L1 median scalar value [24]: 1.83 ln(ratio)
H2L2:H2L1 normalized median ratio [24]: 66%
H2L2:H2L1 median scalar value [25]: -0.49 ln(ratio)

Pertuzumab Fab heavy chain L124W_L143E_K145T
H2L2:H2L1 median scalar value [26]: 0.73 ln
H2L2:H2L1 normalized median ratio [26]: 67%
H2L2:H2L1 normalized median ratio [27]: 33%

Pertuzumab Fab heavy chain L143E_K145T
H2L2:H2L1 median scalar value [28]: 3.09 ln
H2L2:H2L1 median scalar value [29]: -0.26 ln
H2L2:H2L1 median scalar value [30]: -0.32 ln
H2L2:H2L1 median scalar value [31]: 0.86 ln

Pertuzumab Fab heavy chain L143E_K145T_Q179E_K228D
H2L2:H2L1 median scalar value [32]: 1.15 ln
H2L2:H2L1 normalized median ratio [32]: 75%
H2L2:H2L1 median scalar value [33]: 0.72 ln
H2L2:H2L1 normalized median ratio [33]: 67%
H2L2:H2L1 normalized median ratio [34]: 33%
H2L2:H2L1 median scalar value [35]: 2.56 ln(ratio)
H2L2:H2L1 normalized median ratio [35]: 92%
H2L2:H2L1 normalized median ratio [36]: 25%
H2L2:H2L1 median scalar value [37]: 1.1 ln(ratio)
H2L2:H2L1 normalized median ratio [37]: 66%
H2L2:H2L1 normalized median ratio [38]: 5%
H2L2:H2L1 normalized median ratio [39]: 8%
H2L2:H2L1 normalized median ratio [40]: 34%
H2L2:H2L1 median scalar value [41]: 3.5 ln(ratio)
H2L2:H2L1 normalized median ratio [41]: 95%

Pertuzumab Fab heavy chain L143E_K145T_S188W
H2L2:H2L1 median scalar value [42]: 0.43 ln

Pertuzumab Fab heavy chain L143K_S188K
H2L2:H2L1 median scalar value [43]: 1.01 ln
H2L2:H2L1 normalized median ratio [43]: 73%
H2L2:H2L1 normalized median ratio [9]: 27%
H2L2:H2L1 median scalar value [44]: 0.61 ln

Pertuzumab Fab heavy chain L143R
H2L2:H2L1 normalized median ratio [45]: 4%
H2L2:H2L1 median scalar value [46]: 0.87 ln(ratio)
H2L2:H2L1 median scalar value [47]: 2.13 ln(ratio)
H2L2:H2L1 normalized median ratio [47]: 89%
H2L2:H2L1 median scalar value [48]: 1.72 ln(ratio)
H2L2:H2L1 normalized median ratio [48]: 85%
H2L2:H2L1 normalized median ratio [49]: 96%
H2L2:H2L1 normalized median scalar value ln(r1/f1) [49]: 3.06
H2L2:H2L1 normalized median ratio [50]: 11%
H2L2:H2L1 normalized median ratio [51]: 15%

Pertuzumab Fab heavy chain L143R_K228D
H2L2:H2L1 normalized median ratio [52]: 26%
H2L2:H2L1 median scalar value [53]: -0.2 ln(ratio)
H2L2:H2L1 median scalar value [54]: 1.08 ln(ratio)
H2L2:H2L1 normalized median ratio [54]: 74%

Pertuzumab Fab heavy chain L143R_S188K
H2L2:H2L1 median scalar value [55]: 1.45 ln
H2L2:H2L1 median scalar value [56]: 1.21 ln
H2L2:H2L1 median scalar value [57]: 1.31 ln
H2L2:H2L1 normalized median ratio [9]: 22%
H2L2:H2L1 median scalar value [58]: -0.02 ln
H2L2:H2L1 median scalar value [59]: 1.21 ln(ratio)
H2L2:H2L1 median scalar value [60]: 0.02 ln(ratio)

Pertuzumab Fab heavy chain Q179K_S188K
H2L2:H2L1 normalized median ratio [61]: 8%
H2L2:H2L1 normalized median ratio [9]: 12%
H2L2:H2L1 median scalar value [62]: 2.76 ln
H2L2:H2L1 median scalar value [63]: 2.01 ln
H2L2:H2L1 normalized median ratio [63]: 88%
H2L2:H2L1 median scalar value [64]: 2.48 ln
H2L2:H2L1 normalized median ratio [64]: 92%

Pertuzumab Fab heavy chain S186R_S188K
H2L2:H2L1 normalized median ratio [9]: 31%
H2L2:H2L1 median scalar value [65]: 0.8 ln
H2L2:H2L1 normalized median ratio [65]: 69%
H2L2:H2L1 median scalar value [66]: 0 ln

Pertuzumab Fab heavy chain S188K_V190F
H2L2:H2L1 median scalar value [67]: 0.88 ln(ratio)
